According to US20260193342A1 (ZOETIS SERVICES, published 2026):

Molecular target: canine FcRn complex (FcRn-α subunit and β-microglobulin) (canine, UniProt A0A8I3PFR8 25-347, biotin on the BAP tag by BirA (Example 5 only))
Assay: SPR (Biacore), biotinylated FcRn on SA chip, IgG flowed, pH 6, 15 C

Chain of canine FcRn complex (FcRn-α subunit and β-microglobulin) (A0A8I3PFR8 entry or part of it, one chain of several): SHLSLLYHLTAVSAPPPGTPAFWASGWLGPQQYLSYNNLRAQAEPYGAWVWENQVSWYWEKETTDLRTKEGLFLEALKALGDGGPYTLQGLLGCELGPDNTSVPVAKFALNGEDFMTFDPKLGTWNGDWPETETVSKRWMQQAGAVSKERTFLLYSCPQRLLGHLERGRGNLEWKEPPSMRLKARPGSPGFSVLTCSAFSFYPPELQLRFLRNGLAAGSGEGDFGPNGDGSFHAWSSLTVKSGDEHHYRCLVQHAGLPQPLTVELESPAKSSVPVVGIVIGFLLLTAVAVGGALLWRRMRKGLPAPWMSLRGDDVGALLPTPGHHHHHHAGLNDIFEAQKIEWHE

| Binder | Kd [nM] |
| --- | --- |
| mAb2 of Table 4A, caninized anti-NGF antibody ZTS-841, canine IgGA, WT (antibody, also called ID No. 39) heavy: EVQLVESGGDLVKPGGSLRLSCVASGFTFSSHGMHWVRQSPGKGLQWVAVINSGGSSTYYTDAVKGRFTISRDNAKNTVYLQMNSLRAEDTAMYYCAKESVGGWEQLVGPHFDYWGQGTLVIVSSASTTAPSVFPLAPSCGSTSGSTVALACLVSGYFPEPVTVSWNSGSLTSGVHTFPSVLQSSGLHSLSSMVTVPSSRWPSETFTCNVVHPASNTKVDKPVFNECRCTDTPPCPVPEPLGGPSVLIFPPKPKDILRITRTPEVTCVVLDLGREDPEVQISWFVDGKEVHTAKTQSREQQFNGTYRVVSVLPIEHQDWLTGKEFKCRVNHIDLPSPIERTISKARGRAHKPSVYVLPPSPKELSSSDTVSITCLIKDFYPPDIDVEWQSNGQQEPERKHRMTPPQLDEDGSYFLYSKLSVDKSRWQQGDPFTCAVMHETLQNHYTDLSLSHSPGK VL: QSVLTQPTSVSGSLGQRVTISCSGSTNNIGILGASWYQLFPGKAPKLLVYGNGNRPSGVPDRFSGADSGDSVTLTITGLQAEDEADYYCQSFDTTLGAHVFGGGTHLTVL | 95.5 |
| mAb1, caninized anti-IL31 antibody 34D03, canine IgGA, N434F (antibody) chain 1: EVQLVESGGDLVKPGGSLRLSCVASGFTFSNYGMSWVRQAPGKGLQWVATISYGGSYTYYPDNIKGRFTISRDNAKNTLYLQMNSLRAEDTAMYYCVRGYGYDTMDYWGQGTLVTVSSASTTAPSVFPLAPSCGSTSGSTVALACLVSGYFPEPVTVSWNSGSLTSGVHTFPSVLQSSGLHSLSSMVTVPSSRWPSETFTCNVVHPASNTKVDKPVFNECRCTDTPPCPVPEPLGGPSVLIFPPKPKDILRITRTPEVTCVVLDLGREDPEVQISWFVDGKEVHTAKTQSREQQFNGTYRVVSVLPIEHQDWLTGKEFKCRVNHIDLPSPIERTISKARGRAHKPSVYVLPPSPKELSSSDTVSITCLIKDFYPPDIDVEWQSNGQQEPERKHRMTPPQLDEDGSYFLYSKLSVDKSRWQQGDPFTCAVMHETLQFHYTDLSLSHSPGK chain 2: EIVMTQSPASLSLSQEEKVTITCKASQSVSFAGTGLMHWYQQKPGQAPKLLIYRASNLEAGVPSRFSGSGSGTDFSFTISSLEPEDVAVYYCQQSREYPWTFGQGTKLEIKRNDAQPAVYLFQPSPDQLHTGSASVVCLLNSFYPKDINVKWKVDGVIQDTGIQESVTEQDKDSTYSLSSTLTMSSTEYLSHELYSCEITHKSLPSTLIKSFQRSEC | 12.7 |

Further binders by falling Kd, results first:

| Kd [nM] | Binder |
| --- | --- |
| 79.9 | mAb1, caninized anti-IL31 antibody 34D03, canine IgGA, WT (antibody, VH/VL: the caninized 34D03 entries of the listing; also called ID No. 1) heavy: EVQLVESGGDLVKPGGSLRLSCVASGFTFSNYGMSWVRQAPGKGLQWVATISYGGSYTYYPDNIKGRFTISRDNAKNTLYLQMNSLRAEDTAMYYCVRGYGYDTMDYWGQGTLVTVSSASTTAPSVFPLAPSCGSTSGSTVALACLVSGYFPEPVTVSWNSGSLTSGVHTFPSVLQSSGLHSLSSMVTVPSSRWPSETFTCNVVHPASNTKVDKPVFNECRCTDTPPCPVPEPLGGPSVLIFPPKPKDILRITRTPEVTCVVLDLGREDPEVQISWFVDGKEVHTAKTQSREQQFNGTYRVVSVLPIEHQDWLTGKEFKCRVNHIDLPSPIERTISKARGRAHKPSVYVLPPSPKELSSSDTVSITCLIKDFYPPDIDVEWQSNGQQEPERKHRMTPPQLDEDGSYFLYSKLSVDKSRWQQGDPFTCAVMHETLQNHYTDLSLSHSPGK VL: EIVMTQSPASLSLSQEEKVTITCKASQSVSFAGTGLMHWYQQKPGQAPKLLIYRASNLEAGVPSRFSGSGSGTDFSFTISSLEPEDVAVYYCQQSREYPWTFGQGTKLEIK |
| 9.81 | mAb2 of Table 4A, caninized anti-NGF antibody ZTS-841, canine IgGA, N434F (antibody, also called ID No. 40) heavy: EVQLVESGGDLVKPGGSLRLSCVASGFTFSSHGMHWVRQSPGKGLQWVAVINSGGSSTYYTDAVKGRFTISRDNAKNTVYLQMNSLRAEDTAMYYCAKESVGGWEQLVGPHFDYWGQGTLVIVSSASTTAPSVFPLAPSCGSTSGSTVALACLVSGYFPEPVTVSWNSGSLTSGVHTFPSVLQSSGLHSLSSMVTVPSSRWPSETFTCNVVHPASNTKVDKPVFNECRCTDTPPCPVPEPLGGPSVLIFPPKPKDILRITRTPEVTCVVLDLGREDPEVQISWFVDGKEVHTAKTQSREQQFNGTYRVVSVLPIEHQDWLTGKEFKCRVNHIDLPSPIERTISKARGRAHKPSVYVLPPSPKELSSSDTVSITCLIKDFYPPDIDVEWQSNGQQEPERKHRMTPPQLDEDGSYFLYSKLSVDKSRWQQGDPFTCAVMHETLQFHYTDLSLSHSPGK VL: QSVLTQPTSVSGSLGQRVTISCSGSTNNIGILGASWYQLFPGKAPKLLVYGNGNRPSGVPDRFSGADSGDSVTLTITGLQAEDEADYYCQSFDTTLGAHVFGGGTHLTVL |
